Experimental data: patent publication US12679878B2, “CRF2 receptor agonists and their use in therapy” (SANOFI, priority 2020, dated 2026)
Starred links: 1 amine or outer side, 2 acyl side, 3 side chain; linkers in the order of their positions; H or OH if unused. Non-standard residues stand in square brackets, D forms with d. Groups on a side chain read outwards from the residue. No end group written: not given here. *: point of attachment. C18 diacid = O=C(O)CCCCCCCCCCCCCCCCC(=O)*; γGlu = O=C(O)[C@H](CCC(=O)[*:2])N[*:1]; AEEA = NCCOCCOCC(=O)O; Aib = CC(C)(N)C(=O)O

T1: anti-target CRF1R receptor (UniProt P34998 24-415, limits assumed)
T1 sequence (looked up): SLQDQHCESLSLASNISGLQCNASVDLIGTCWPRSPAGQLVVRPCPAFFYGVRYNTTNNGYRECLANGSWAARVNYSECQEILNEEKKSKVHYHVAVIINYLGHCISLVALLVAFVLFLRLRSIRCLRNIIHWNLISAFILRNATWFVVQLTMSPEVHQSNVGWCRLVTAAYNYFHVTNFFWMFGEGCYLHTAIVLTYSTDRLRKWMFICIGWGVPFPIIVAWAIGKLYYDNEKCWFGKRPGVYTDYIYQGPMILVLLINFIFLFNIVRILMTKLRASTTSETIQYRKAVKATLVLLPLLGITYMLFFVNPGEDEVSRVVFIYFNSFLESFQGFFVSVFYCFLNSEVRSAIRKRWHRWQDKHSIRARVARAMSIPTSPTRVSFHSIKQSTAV

T2: endogenous human CRF2 (NCI-H82 cells) (human, UniProt Q13324 20-411)
T2 sequence (looked up): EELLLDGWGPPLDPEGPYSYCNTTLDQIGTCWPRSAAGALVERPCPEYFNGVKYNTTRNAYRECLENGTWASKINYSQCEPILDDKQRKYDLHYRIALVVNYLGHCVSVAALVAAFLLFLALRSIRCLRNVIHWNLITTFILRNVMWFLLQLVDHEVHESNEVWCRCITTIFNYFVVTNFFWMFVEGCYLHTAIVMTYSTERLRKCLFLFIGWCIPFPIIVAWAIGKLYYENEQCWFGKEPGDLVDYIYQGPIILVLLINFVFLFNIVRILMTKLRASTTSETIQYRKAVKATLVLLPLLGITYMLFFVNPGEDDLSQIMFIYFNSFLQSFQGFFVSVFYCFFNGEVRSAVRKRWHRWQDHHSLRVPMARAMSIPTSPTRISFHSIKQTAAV

B1: peptide of SEQ ID NO: 139 (peptide)
peptide: IVLSLD[dV]PIKLK([AEEA-AEEA-γGlu-C18 diacid])QILLKQERQKKQRQQAEKNKQILAQV-NH2
modifications: N-terminus assumed
SMILES: CC[C@H](C)[C@H](N)C(=O)N[C@H](C(=O)N[C@@H](CC(C)C)C(=O)N[C@@H](CO)C(=O)N[C@@H](CC(C)C)C(=O)N[C@@H](CC(=O)O)C(=O)N[C@@H](C(=O)N1CCC[C@H]1C(=O)N[C@H](C(=O)N[C@@H](CCCCN)C(=O)N[C@@H](CC(C)C)C(=O)N[C@@H](CCCCNC(=O)COCCOCCNC(=O)COCCOCCNC(=O)CC[C@H](NC(=O)CCCCCCCCCCCCCCCCC(=O)O)C(=O)O)C(=O)N[C@@H](CCC(N)=O)C(=O)N[C@H](C(=O)N[C@@H](CC(C)C)C(=O)N[C@@H](CC(C)C)C(=O)N[C@@H](CCCCN)C(=O)N[C@@H](CCC(N)=O)C(=O)N[C@@H](CCC(=O)O)C(=O)N[C@@H](CCCNC(=N)N)C(=O)N[C@@H](CCC(N)=O)C(=O)N[C@@H](CCCCN)C(=O)N[C@@H](CCCCN)C(=O)N[C@@H](CCC(N)=O)C(=O)N[C@@H](CCCNC(=N)N)C(=O)N[C@@H](CCC(N)=O)C(=O)N[C@@H](CCC(N)=O)C(=O)N[C@@H](C)C(=O)N[C@@H](CCC(=O)O)C(=O)N[C@@H](CCCCN)C(=O)N[C@@H](CC(N)=O)C(=O)N[C@@H](CCCCN)C(=O)N[C@@H](CCC(N)=O)C(=O)N[C@H](C(=O)N[C@@H](CC(C)C)C(=O)N[C@@H](C)C(=O)N[C@@H](CCC(N)=O)C(=O)N[C@H](C(N)=O)C(C)C)[C@@H](C)CC)[C@@H](C)CC)[C@@H](C)CC)C(C)C)C(C)C
B2: peptide of SEQ ID NO: 147 (peptide)
peptide: IVLSLD[dV]PIGLK([AEEA-AEEA-γGlu-C18 diacid])QILLKQERQKK[Aib]REQAETNKQILAQV-NH2
modifications: N-terminus assumed
SMILES: CC[C@H](C)[C@H](N)C(=O)N[C@H](C(=O)N[C@@H](CC(C)C)C(=O)N[C@@H](CO)C(=O)N[C@@H](CC(C)C)C(=O)N[C@@H](CC(=O)O)C(=O)N[C@@H](C(=O)N1CCC[C@H]1C(=O)N[C@H](C(=O)NCC(=O)N[C@@H](CC(C)C)C(=O)N[C@@H](CCCCNC(=O)COCCOCCNC(=O)COCCOCCNC(=O)CC[C@H](NC(=O)CCCCCCCCCCCCCCCCC(=O)O)C(=O)O)C(=O)N[C@@H](CCC(N)=O)C(=O)N[C@H](C(=O)N[C@@H](CC(C)C)C(=O)N[C@@H](CC(C)C)C(=O)N[C@@H](CCCCN)C(=O)N[C@@H](CCC(N)=O)C(=O)N[C@@H](CCC(=O)O)C(=O)N[C@@H](CCCNC(=N)N)C(=O)N[C@@H](CCC(N)=O)C(=O)N[C@@H](CCCCN)C(=O)N[C@@H](CCCCN)C(=O)NC(C)(C)C(=O)N[C@@H](CCCNC(=N)N)C(=O)N[C@@H](CCC(=O)O)C(=O)N[C@@H](CCC(N)=O)C(=O)N[C@@H](C)C(=O)N[C@@H](CCC(=O)O)C(=O)N[C@H](C(=O)N[C@@H](CC(N)=O)C(=O)N[C@@H](CCCCN)C(=O)N[C@@H](CCC(N)=O)C(=O)N[C@H](C(=O)N[C@@H](CC(C)C)C(=O)N[C@@H](C)C(=O)N[C@@H](CCC(N)=O)C(=O)N[C@H](C(N)=O)C(C)C)[C@@H](C)CC)[C@@H](C)O)[C@@H](C)CC)[C@@H](C)CC)C(C)C)C(C)C
B3: peptide of SEQ ID NO: 138 (peptide)
peptide: IVLSLD[dV]PIKLK([AEEA-AEEA-γGlu-C18 diacid])QILLKQERQKKQREKAEKNKQILAQV-NH2
modifications: N-terminus assumed
SMILES: CC[C@H](C)[C@H](N)C(=O)N[C@H](C(=O)N[C@@H](CC(C)C)C(=O)N[C@@H](CO)C(=O)N[C@@H](CC(C)C)C(=O)N[C@@H](CC(=O)O)C(=O)N[C@@H](C(=O)N1CCC[C@H]1C(=O)N[C@H](C(=O)N[C@@H](CCCCN)C(=O)N[C@@H](CC(C)C)C(=O)N[C@@H](CCCCNC(=O)COCCOCCNC(=O)COCCOCCNC(=O)CC[C@H](NC(=O)CCCCCCCCCCCCCCCCC(=O)O)C(=O)O)C(=O)N[C@@H](CCC(N)=O)C(=O)N[C@H](C(=O)N[C@@H](CC(C)C)C(=O)N[C@@H](CC(C)C)C(=O)N[C@@H](CCCCN)C(=O)N[C@@H](CCC(N)=O)C(=O)N[C@@H](CCC(=O)O)C(=O)N[C@@H](CCCNC(=N)N)C(=O)N[C@@H](CCC(N)=O)C(=O)N[C@@H](CCCCN)C(=O)N[C@@H](CCCCN)C(=O)N[C@@H](CCC(N)=O)C(=O)N[C@@H](CCCNC(=N)N)C(=O)N[C@@H](CCC(=O)O)C(=O)N[C@@H](CCCCN)C(=O)N[C@@H](C)C(=O)N[C@@H](CCC(=O)O)C(=O)N[C@@H](CCCCN)C(=O)N[C@@H](CC(N)=O)C(=O)N[C@@H](CCCCN)C(=O)N[C@@H](CCC(N)=O)C(=O)N[C@H](C(=O)N[C@@H](CC(C)C)C(=O)N[C@@H](C)C(=O)N[C@@H](CCC(N)=O)C(=O)N[C@H](C(N)=O)C(C)C)[C@@H](C)CC)[C@@H](C)CC)[C@@H](C)CC)C(C)C)C(C)C
B4: peptide of SEQ ID NO: 151 (peptide)
peptide: IVLSLD[dV]PIGLK([AEEA-AEEA-γGlu-C18 diacid])QILLKQERQKK[Aib]REQAEKNKRILERV-NH2
modifications: N-terminus assumed
SMILES: CC[C@H](C)[C@H](N)C(=O)N[C@H](C(=O)N[C@@H](CC(C)C)C(=O)N[C@@H](CO)C(=O)N[C@@H](CC(C)C)C(=O)N[C@@H](CC(=O)O)C(=O)N[C@@H](C(=O)N1CCC[C@H]1C(=O)N[C@H](C(=O)NCC(=O)N[C@@H](CC(C)C)C(=O)N[C@@H](CCCCNC(=O)COCCOCCNC(=O)COCCOCCNC(=O)CC[C@H](NC(=O)CCCCCCCCCCCCCCCCC(=O)O)C(=O)O)C(=O)N[C@@H](CCC(N)=O)C(=O)N[C@H](C(=O)N[C@@H](CC(C)C)C(=O)N[C@@H](CC(C)C)C(=O)N[C@@H](CCCCN)C(=O)N[C@@H](CCC(N)=O)C(=O)N[C@@H](CCC(=O)O)C(=O)N[C@@H](CCCNC(=N)N)C(=O)N[C@@H](CCC(N)=O)C(=O)N[C@@H](CCCCN)C(=O)N[C@@H](CCCCN)C(=O)NC(C)(C)C(=O)N[C@@H](CCCNC(=N)N)C(=O)N[C@@H](CCC(=O)O)C(=O)N[C@@H](CCC(N)=O)C(=O)N[C@@H](C)C(=O)N[C@@H](CCC(=O)O)C(=O)N[C@@H](CCCCN)C(=O)N[C@@H](CC(N)=O)C(=O)N[C@@H](CCCCN)C(=O)N[C@@H](CCCNC(=N)N)C(=O)N[C@H](C(=O)N[C@@H](CC(C)C)C(=O)N[C@@H](CCC(=O)O)C(=O)N[C@@H](CCCNC(=N)N)C(=O)N[C@H](C(N)=O)C(C)C)[C@@H](C)CC)[C@@H](C)CC)[C@@H](C)CC)C(C)C)C(C)C

Target: rat CRF2R α receptor (rat, UniProt P47866 20-411)
Assay: cell-based or functional assay

Going from B1 to B2, the “EC50 [nM], 0% HSA (cAMP, A7R5 cells)” value rises from 0.1 nM to 2.53 nM (25-fold).

First: B3
Second: B4
The “EC50 [nM], 0% HSA (cAMP, A7R5 cells)” value of the first is 1.9-fold lower: 0.26 nM for the first, 0.49 nM for the second.

Target: T1, anti-target CRF1R receptor
Assay: cell-based or functional assay

B1 and B2 cannot be ordered by “EC50[nM] 0% HSA (cAMP, CRF1R-overexpression CHO cells)” value: greater than 1000 nM for the first, greater than 1000 nM for the second.

B3 and B4 cannot be ordered by “EC50[nM] 0% HSA (cAMP, CRF1R-overexpression CHO cells)” value: greater than 1000 nM for the first, greater than 1000 nM for the second.

First: B1
Second: B2
The “Emax (%) (cAMP, CRF1R-overexpression CHO cells)” value of the first is higher: 37.6% for the first, 4.54% for the second.

Compared with B3, B4 is higher in “Emax (%) (cAMP, CRF1R-overexpression CHO cells)” value: 4.38% for the first, 9.07% for the second.

Target: T2, endogenous human CRF2 (NCI-H82 cells)
Assay: cell-based or functional assay

B1 and B2 are within 1.5-fold of each other in “EC50 [nM] (cAMP, NCI-H82 cells)” value: 18 nM for the first, 13 nM for the second.

B3 and B4 are within 1.5-fold of each other in “EC50 [nM] (cAMP, NCI-H82 cells)” value: 8.4 nM for the first, 7.4 nM for the second.
